US20260042862A1 (AGENCY FOR SCIENCE TECHNOLOGY AND RESEARCH, published 2026)
Changes are numbered by the printed parent chain.

B1: anti-GPC-3 IgG1 clone 2F1 (antibody, V domains shown)
VH: EVQLVQSGAEVKKPGSSVKVSCKASGGTFSSYAISWVRQAPGQGLEWMGGIIPIFGTANYAQKFQGRVTITADESTSTAYMELSSLRSEDTAVYYCARDSPYYYYMDVWGKGTT
VL: DVVMTQSPLFLPVTLGQPASISCRSSQSLVYSDGNTYLSWFQQRPGQSPRRLVYKVSSRDSGVPDRFSGSGSGTDFTLKISRVEAEDVGVYYCMQGTHWPRTFGQGTK
notes: Tested as IgG1; also called monoclonal antibody 2F1
B2: anti-GPC-3 IgG1 clone 3C6 (antibody, V domains shown)
VH: QVQLQESGGGVVQPGRSLRLSCAASGFTFSSYAMHWVRQAPGKGLEWVAVISYDGSNKYYADSVKGRFTISRDNSKNTLYLQMNSLRAEDTAVYYCAYGRYNWNLYFDYWGQGTL
VL: NFMLTQPHSVSESPGKTVTISCTGSSGSIASNYVQWYQQRPGSVPTTVIYEDNQRPSGVPDRFSGSIDSSSNSASLTISGLKTEDEADYYCQSFDSSNYWVFGGGTK
notes: Tested as IgG1; also called monoclonal antibody 3C6
B3: anti-GPC-3 IgG1 clone 2B5 (antibody, V domains shown)
VH: QVQLQESGGGVVQPGRSLRLSCAASGFTFSSYAMHWVRQAPGKGLEWVAVISYDGSNKYYADSVKGRFTISRDNSKNTLYLQMNSLRAEDTAVYYCAKEGTYYYDSSGYWDYYYGMDVWGQGTT
VL: DVVMTQSPLSLPVTPGEPASISCRSSQSLLDSDGYNFLDWYVQKPGQSPQRLIYLGSIRASGVPDRFSGSGSGTDFTLKISRVEADDVGVYYCMQALQTPWTFGQGTK
notes: Tested as IgG1; also called monoclonal antibody 2B5
B4: anti-GPC-3 IgG1 clone 1H10 (antibody, V domains shown)
VH: QLQLQESGGGLVQPGGSLRLSCAASGFTFSSYVMSWVRQAPGKGLEWVSTISGSGGSTYYADSVKGRFTISRDNSKNTLYLQMSSLRAEDTAVYYCVMGWYFDLWGRGTL
VL: EIVLTQSPGTLSLSPGERATLSCRASQSVSSSYLAWYQQKPGQAPRLLIYDASNRATGIPARFSGSGSGTDFTLTISSLEPEDFAVYYCQQRSNWPPRATFGQGTR
notes: Tested as IgG1; also called monoclonal antibody 1H10
B5: anti-GPC-3 IgG1 clone 3A9 (antibody, V domains shown)
VH: QVQLQQWGAGLLKPSETLSLTCAVYGGSFSGYYWSWIRQPPGKGLEWIGEINHSGSTNYNPSLKSRVTISVDTSKNQFSLKLSSVTAADTAVYYCARLYKRRPFDYWGQGTL
VL: not shown
notes: Tested as IgG1; also called monoclonal antibody 3A9
B6: anti-GPC-3 IgG1 clone 3G12 (antibody, V domains shown)
VH: B5 VH
VL: ETTLTQSPGTLSLSPGERATLSCRASQSVSSSYLAWYQQKRGQAPRLLIYGASRRATGIPDRFSGSGSGSDFTLTISRLEPEDFAVYYCQQYGSSPSTFGQGTK
notes: Tested as IgG1; also called monoclonal antibody 3G12
B7: anti-GPC-3 IgG1 clone 4G4 (antibody, V domains shown)
VH: B5 VH
VL: B6 VL with R41P, G51N, S70A, E80D, Y88F, S97Q
notes: Tested as IgG1; also called monoclonal antibody 4G4
B8: anti-GPC-3 IgG1 clone 1F4 (antibody, V domains shown)
VH: B5 VH with A87V
VL: B6 VL with S32T, R41P, I59S, D61E, S66G, S70T, Q91H, S94N, S97G
notes: Tested as IgG1; also called monoclonal antibody 1F4
B9: anti-GPC-3 IgG1 clone 1A12 (antibody, V domains shown)
VH: B5 VH with V24A
VL: B6 VL with V29I, S32I, R41P, S70T, P96L, S97R
notes: Tested as IgG1; also called monoclonal antibody 1A12
B10: anti-GPC-3 IgG1 clone 1E1 (antibody, V domains shown)
VH: B5 VH
VL: VTTLTQSPGTLSLSPGERATLSCRASESVSSRYLAWYQQRPGQAPRLLIYGASRRATGSPERFSGGGSGTDFTLTISRLEPEDFAVYYCQHYGNSPGTFGQGTK
notes: Tested as IgG1; also called monoclonal antibody 1E1

molecular target: T1, recombinant human GPC-3 protein (human, UniProt P51654 25-559, limits assumed); test: binding ELISA with biotin-hGPC-3, EC50 calculated from the curves of FIG. 1A to 1C
T1 construct: also called glypican-3; recombinant GPC-3 protein

| EC50 | Binder |
| --- | --- |
| 2.61 nM | B1 |
| 20.9 nM | B2 |
| 11.9 nM | B3 |
| 1.65 nM | B4 |
| 10.8 nM | B5 |
| 11 nM | B6 |
| 12.3 nM | B7 |
| 10.3 nM | B8 |
| 10.2 nM | B9 |
| 50.1 nM | B10 |

molecular target: T1, recombinant human GPC-3 protein; test: SPR, Biacore T200
Protocol: Affinity of 24 anti-GPC-3 IgG₁ antibodies was measured via Surface Plasmon Resonance (SPR) analysis using Biacore™ T200 system and shown in Table E3 (below).

| Kd | koff | kon | Binder |
| --- | --- | --- | --- |
| 14.7 nM | 0.00181 s⁻¹ | 124000 M⁻¹ s⁻¹ | B1 |
| 8.18 nM | 0.000472 s⁻¹ | 57700 M⁻¹ s⁻¹ | B2 |
| 12.4 nM | 0.0038 s⁻¹ | 306000 M⁻¹ s⁻¹ | B3 |
| 19.7 nM | 0.0147 s⁻¹ | 748000 M⁻¹ s⁻¹ | B4 |
| 12.4 nM | 0.00188 s⁻¹ | 151000 M⁻¹ s⁻¹ | B5 |
| 12.5 nM | 0.00169 s⁻¹ | 135000 M⁻¹ s⁻¹ | B6 |
| 12.9 nM | 0.00195 s⁻¹ | 151000 M⁻¹ s⁻¹ | B7 |
| 7.2 nM | 0.00129 s⁻¹ | 179000 M⁻¹ s⁻¹ | B8 |
| 27.6 nM | 0.00315 s⁻¹ | 114000 M⁻¹ s⁻¹ | B9 |
| 16.2 nM | 0.00233 s⁻¹ | 144000 M⁻¹ s⁻¹ | B10 |
